Reference: patent publication US10689651B2, “Method of inhibiting macrophage activation using an inhibitor of PARP9” (THE BRIGHAM AND WOMEN'S HOSPITAL, INC., priority 2013, dated 2020)
“Also recorded” adds a separate entry of the source.

Molecular target: T1, PARP14 (Homo sapiens, UniProt Q460N5)
T1 construct: purchased BPS Bioscience Inc
Test: Ribosylation assay: PARP14-mediated ADP-ribosylation of STAT1α
Type: biochemical
Conditions: recombinant proteins; for PARP14-induced mono ADP-ribosylation at Glu657 and Glu705 of STAT1α: LC-MS/MS, MS1 AUC quantification
Source text: The high resolution/accuracy LTQ-Orbitrap Elite (Thermo Scientific) analyzed TMT peptide samples and the Q Exactive (Thermo Scientific) analyzed in vitro ribosylated peptides. Both mass spectrometers are fronted with a Nanospray FLEX ion source, and coupled to an Easy-nLC1000 HPLC pump (Thermo Scientific). The peptides were subjected to a dual column set-up: an Acclaim PepMap RSLC C18 trap column, 75 um×20 cm (50 um×15 cm on the Q Exactive); and an Acclaim PepMap RSLC C18 analytical column 75 um×250 mm (Thermo Scientific). For TMT analysis the analytical gradient was run at 250 nl/min from 10 to 30% Solvent B (acetonitrile/0.1% formic acid) for 90 minutes, followed by five minutes of 95% Solvent B. Solvent A was 0.1% formic acid. For ribosylated peptides the gradient was run at 250 nl/min from 5 to 28% Solvent B for 30 minutes, followed by five minutes of 95% Solvent B. All reagents were HPLC-grade. […] Unmodified forms were calculated by subtracting the mass of the ADP-ribose (541. 06 Da) from the observed precursor. Modified and unmodified m/z values and corresponding retention time windows were submitted to an inclusion list and analyzed in using the data-independent acquisition module of the Q Exactive (R=35 K).
Recombinant human PARP14 and PARP9 (BPS Bioscience Inc.) proteins, and BSA (Sigma-Aldrich) were incubated with recombinant human STAT1α (OriGene Technologies, Inc.) or STAT6 protein (Sino Biological Inc.) at a final concentration of 5 ng/μl in the presence of 100 μM β-Nicotinamide adenine dinucleotide hydrate (NAD; Sigma-Aldrich) or 6-biotin-17-NAD (Trevigen, Inc.) in 50 mM Tris-HCl buffer (pH 7.4) for 1 hour at room temperature. Ribosylation of STAT1α and STAT6 was detected by LC-MS/MS after trypsin digestion or Western blotting using Streptavidin-HRP (Abcam) after SDS-PAGE. Quantification of the relative abundances of ribosylated STAT1α peptides was completed by calculating the area under the curve (AUC) of the extracted ion chromatograms (XICs) of the monoisotopic peaks of the modified versus unmodified peptides. […]

T1 sequence (Q460N5 whole entry): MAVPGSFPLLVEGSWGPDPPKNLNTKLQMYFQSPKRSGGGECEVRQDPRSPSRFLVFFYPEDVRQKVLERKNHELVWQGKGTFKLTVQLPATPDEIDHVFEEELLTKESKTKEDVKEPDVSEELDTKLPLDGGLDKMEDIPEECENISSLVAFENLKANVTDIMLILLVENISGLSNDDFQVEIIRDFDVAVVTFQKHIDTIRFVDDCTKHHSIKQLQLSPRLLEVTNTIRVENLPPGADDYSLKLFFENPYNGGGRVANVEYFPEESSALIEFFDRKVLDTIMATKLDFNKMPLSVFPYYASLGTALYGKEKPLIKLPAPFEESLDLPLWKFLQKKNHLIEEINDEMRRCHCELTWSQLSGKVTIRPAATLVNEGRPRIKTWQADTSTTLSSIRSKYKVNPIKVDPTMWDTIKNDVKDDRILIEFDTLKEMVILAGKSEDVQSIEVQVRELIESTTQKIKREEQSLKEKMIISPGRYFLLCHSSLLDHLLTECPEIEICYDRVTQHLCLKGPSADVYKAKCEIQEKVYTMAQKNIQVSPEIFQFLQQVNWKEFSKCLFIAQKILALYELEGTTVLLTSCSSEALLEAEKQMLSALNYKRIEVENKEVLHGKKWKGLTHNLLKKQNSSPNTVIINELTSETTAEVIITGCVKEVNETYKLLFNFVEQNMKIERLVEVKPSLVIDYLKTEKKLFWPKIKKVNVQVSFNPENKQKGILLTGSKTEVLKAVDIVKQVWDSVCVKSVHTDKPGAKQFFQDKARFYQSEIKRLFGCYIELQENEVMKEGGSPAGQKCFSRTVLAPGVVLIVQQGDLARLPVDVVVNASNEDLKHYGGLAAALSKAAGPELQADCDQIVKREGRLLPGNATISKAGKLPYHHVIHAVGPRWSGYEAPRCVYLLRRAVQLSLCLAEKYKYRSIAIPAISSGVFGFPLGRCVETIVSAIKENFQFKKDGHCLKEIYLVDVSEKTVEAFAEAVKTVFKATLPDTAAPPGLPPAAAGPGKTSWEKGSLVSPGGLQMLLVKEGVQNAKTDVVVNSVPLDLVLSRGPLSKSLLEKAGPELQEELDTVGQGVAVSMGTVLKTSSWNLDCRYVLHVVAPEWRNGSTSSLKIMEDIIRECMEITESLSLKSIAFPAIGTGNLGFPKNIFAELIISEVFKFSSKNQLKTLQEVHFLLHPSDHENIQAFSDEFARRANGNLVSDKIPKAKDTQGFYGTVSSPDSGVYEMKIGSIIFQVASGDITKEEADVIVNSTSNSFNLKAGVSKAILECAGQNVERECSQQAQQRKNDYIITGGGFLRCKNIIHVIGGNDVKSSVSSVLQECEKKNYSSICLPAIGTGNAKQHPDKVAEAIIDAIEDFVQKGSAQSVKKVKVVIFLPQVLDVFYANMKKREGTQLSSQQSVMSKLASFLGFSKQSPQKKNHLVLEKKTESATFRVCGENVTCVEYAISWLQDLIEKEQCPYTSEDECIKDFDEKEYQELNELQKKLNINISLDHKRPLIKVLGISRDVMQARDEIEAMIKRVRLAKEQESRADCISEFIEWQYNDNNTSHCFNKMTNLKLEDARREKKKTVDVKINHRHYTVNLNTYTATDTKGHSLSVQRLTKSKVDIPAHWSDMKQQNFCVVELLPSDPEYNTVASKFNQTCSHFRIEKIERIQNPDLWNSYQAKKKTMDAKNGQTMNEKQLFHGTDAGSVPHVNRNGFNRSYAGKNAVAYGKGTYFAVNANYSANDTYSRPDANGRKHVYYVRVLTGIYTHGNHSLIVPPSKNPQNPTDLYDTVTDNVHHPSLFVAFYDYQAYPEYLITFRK

recombinant PARP9: Recombinant human PARP9 protein (BPS Bioscience Inc.) added to the PARP14 ribosylation assay
PARP14-induced mono ADP-ribosylation at Glu657 and Glu705 of STAT1α: inhibited
PARP14-induced mono ADP-ribosylation at Glu657 and Glu705 of STAT1α (listed as PARP9): inhibition
ADP-ribosylation of STAT1α by PARP14 (protein ribosylation assay (Western blot)): suppressed; also recorded: inhibits
